# Test: yeast display, Sf9 membrane polyspecificity reagent, FACS + sequencing; frameworks hold sequencing errors
# How it was run: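 After 36–48 hours of galactose induction, yeast (Saccharomyces cerevisiae BJ5465) displaying a synthetic nanobody library were stained at 4 °C for 1 hour with 10% biotinylated, detergent-solubilized Sf9 membrane reagent. Streptavidin microbeads enriched the stained cells before FACS sorting into low and high (top ~1%) gates on anti-HA and streptavidin fluorescence. Each clone's polyreactivity label reflects its gate of origin.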
row,Sequence,polyreactivity (PSR sort gate)
1,QVQLVESGGGLVQAGGSLRLSCAASGRIFPTNAMGWYRQAPGKERELVAAIPVSGGSTYYADSVKGRFTISRDNAKKTVYLQMNSLKPEDTAVYYCAVDDRASVGSRLDHWGQGTQVTVSS,low polyreactivity
2,QVQLVESGGGLVQAGGSLRLICAASGRTFGGNAMGWYRQAPGKEWDLVAAISYSDGSKYYADSVKGRFTISRDNANNSVYLQMNSLKPEDTAVYYCAAARHVRTDYLDYDYWGQGTQVTVSS,low polyreactivity
3,QFQLVESGGGLVQAGGSLRLSCAASGSTFKSYAMGWYRQAPGKEREFVAVITWSGGRTSYADSVKGRFTISRDNAKNTVYLQMNSLKPEDTAVYYCAAKAASRYRAFTYDYWGQGTQVTVSS,low polyreactivity
4,QVQLVESGGGLVQAGGSLRLSCAASGSTFSTNAMGCYRQAPGKERELVAAISGRGGRTYYADSVKGRFTISRDNAKNTVYLQMTSLKPEDTAVYYCNTDSYLRMDYWGQGTQVTVSS,high polyreactivity
5,QVQLVESGGGLVQAGGSLRLSCAASGRTFGVNAMGWYRQAPGKERELVARIRVSGGRTYYADSVKGRFTISRDNAKNTVYLQMNSLKPEDTAVYYCNAGYTYNRVIWPYYYWGQGTQVTVSS,high polyreactivity
6,QVQLVESGGGLVQAGGSLRLSCAASGYILGRYAMGWYRQAPGKERELVAAITSGGSTYYADSVKGRFTISRDNAKNTVYLQMNSLKPEDTAVYYCNAFFATGVDYWGQGTQVTVSS,high polyreactivity
7,QVQLVESGGGLVQAGGSLRFSCAASGSIFSSYAMGWYRQAPGKERELVAAISSSGDSTYADSVKGRFTISRDNAKNTVYLQMNSLKPEDTAVYYCAVGGAGSDDYWGQGTQVTVSS,low polyreactivity
8,QVQLVESGGGLVQAGGSLRLSCAASGITFYGYAMGWSRPAPGKERELVAVITSSGSSTYYADSVKGRFTISRDKAKNTVYVQMNSLKPEDTAVYDCNARPGRRSLRSRTYDYWGQGTQVTVSS,high polyreactivity
9,QVQLVESGGGLVHAGGSLRLSCADSGSIFGWYVMGWYRQAPGKVREFVAAISSVGSTYYADSVKGRFTISRDNAKNTVSLQMNSLKPEDTAVYYCAKLRYPYLFWDDSEYWGQGTQVTVSS,low polyreactivity
10,QVQLVESGGGLVQAGGSLRLSCAASGFIFRDYAMGWYRQAPGKERELVAAISWSSDSTYYADSVKWRFTISRDNAKNTVYLQMNSLKPEDTAVYYCAAKGLRGYWWGFDYWGQGTQVTVSS,low polyreactivity
11,QVQLVESGGGLVQAGGSLRLICAASGRIFLNSTMGSYRQEPGKERELVADITWRGGSTYYADSVKGRFTISRDNAKNTVYLQMNSLKPEDTAVYYWNAVSVSSKRSDYWVQGTQVTVSS,low polyreactivity
12,QVQLVESGGGLVQAGGSLRLSCAASGFIFVPYAMGWYRQAPGKERELVAAISSSGGSTNYTDSVKGRFTISRDNAKNTVYLQMISLKPEDTAVYYCAAATWYVNPTHFNRYSEFYYWGQGTQVTVSS,low polyreactivity
13,QVQLLESGGGLVQAGGSLRLSCAASGSIFATYAMGWYRQAPGKERELVAAISSSGARTYYADSVKGRFTISRDNAKNTVYLQMNSLKPEDTAVYYCNADLYSYFWRVRYGLDYWGQGTQVTVSS,high polyreactivity
14,QVQLVESGGGLVQAGGSLRLSCAASGRISFYYAMGWYRQAPGKERELVATISSSGGSTHYADSVKGRFTISRDNAKNTVYLQMNSLKPEDTAVYYCARDDSDRIWLEQSGYWGQGTQVTVSS,low polyreactivity
15,QVQLVESGGGLVQAGGSLRLSCAASGITFYYYGMGWYRQATGKERELVAAISTGGNTNYADSVKGRFTISRDNAKNTVYLQMNSLKPEDTAVYYCAASFASKYEYWGQGTQVTVSS,high polyreactivity
16,QVQLVESGGGLVQAGGSLRLSCAASGSISVYNAMGWYRQAPGKERELVAAISWSGGRTSYADSVKGRFTISRDNAKNTVYLQMNSLKPEDTAVYYCAADELTVLWDEDYWGQGTQVTVSS,low polyreactivity
17,QVQLVESGGGLVQAGGSLRLSCAASGRTFDINTMGWYRQAPGKERELVARISGRGGSTYYADSVKGRFTISRDNAKNTVYLLMNSLKPEYTAVYYCNALGRSVLPQPIGDYWGQGTQVTVSS,high polyreactivity
18,QVQLVESGGGLVQAGGSLRLSCAASGRTLFGYAMGWYRQAPGKERELVAAITYGATSTYADSVKGRFTISRDNAKNTVYLQMNSLKPEDTAVYYCNAYTPTDGFDYWGQGTQVTVSS,low polyreactivity
19,QVQLVESGGGLVQAGGSLRLSCAASGFTFPYYAMGWYRQAPGKERELVATIRSGGSTYYADSVKGRFTISRDNAKNTVYLQMNSLKPEDTAVYYCAKYQVLYSYDKYGYWGQGTQVTVSS,low polyreactivity
20,QVQLVESGGGLVQAGGSLRLSCAASGRTCSNYAMGWYRQAPGKERELVAAISYSVGSTYYADSVKGRFTIARDNAKNTVYLQMNSLKPEDTAVYYCNAKSRPHYAWYRYDYWGQGTQVTVSS,high polyreactivity
21,QVQLVESGGGLVQAGGSLRLSCAASGSTFSEYVMGWYRQAPGKERELVAAIRSNGGSTYYADSVKGRFTISRDNAKNTVYLQMNSLKPEDTAVYYCNRVYSRRTYNSPLYDYWGQGTQVTVSS,high polyreactivity
22,QVQLVESGGGLVQAGGSLRLSCAASGSTFVSYAMGWYRQAPGKERELVAVISYRGGGTYYADSVKGRFTISRDNAKNTVYLQMNSLKPEDTAVYYCNAELWVLVSSYSYHYDGFDYWGQGTQVTVSS,low polyreactivity

row,Sequence,polyreactivity (PSR sort gate)
1,QVQLVESGGGLVQAGGSLRLSCAASGSIFGANAMGWYRQAPGKERELVAAISTRGGRTYYADSVKGRFTISRDIAKNTVYLQMNSLKPEDTAVYYCAAYSSYPEYRRGKYDYWGQGTQVTVSS,high polyreactivity
2,QVQLVESGGGLVQAGGSLRLSCAASGFIFGNYAMGWYRQAPGKERELVATITRRGGRTYYADSVKGRFTISRDNAKNTVYLQMNSLKPEDSAVYYCNARPSRWAREGYWGQGTQVTVSS,high polyreactivity
3,QVQLVESGGGLVQAGCSLRLSCAASRYIFYFYAMGWYRQAPGKERELVAAINSGGTTNYADSVKGRFTISRDNAKNTVYLQMNSLKAEDTAVYYCAARLLIRYYYWGQGTQVTVSS,high polyreactivity
4,QVQLVESWGGLVQAGGSLRLSCAASGSTFYWYTMGWYRQAPGKERELVARISSSGSTNYADSVKGRFTISRDNAKNTVYLQMKSLKPEDTAVYYCKKDWIYRGYDYWGQGTQVTVSS,high polyreactivity
5,QVQLVESGGGLVQAGGSLRLSCAASGGTFAWYAMGWYRQAPGKERELVAAITSDGNTDYADSVKGRFTISRDNAKNTVYLQMNSLKPEDTAVYYCAADVQWRSAYDYTMGYWGQGTQVTVSS,low polyreactivity
6,QVQLVESGRGLVQAQGSLRLSCAASGRIFNYNAMGWYRQAPGNERELVAVISRRGGSTYYADSVKGRFTISRDYAKNTVYLQMNSLKPEDTAVYYCGADLPSYPYEYWGLGTQVTVSS,low polyreactivity
7,QVQLVESGGGLVQAGGSLRLSSAASGRIFTIYAMGWYRQAPGKERELVATISRRGGSTYYADSVKGRFTISRDNAKNTVYLQMNSLKPEDTAGYYCAADSVITWWAYDYWGQGTQVTVSS,high polyreactivity
8,QVQLVESAGGLVQAVGSLRLSCDASGSTFSGNDMGWYRQAPGKERELVAAITSSGGSTYYADSVKGRFTISRDNAKNTVYLQMNSLKPEDTAVYYCAAKSRRTRRSYYWGQGTQVTVSS,high polyreactivity
9,PVQLVESGGGLVQAGGSLRLSCAASGFTFRPYAMGWYRPAPGTERELVAAITSGDSTNYADSVKGRFTISRDNAKKTVYLQMNSLKPEDTAVYYCAADSTGRPSVSYDYWGQGTQVTVSS,low polyreactivity
10,QVQLVESGGGLVQAGGSLRLSCAASGRIFRWYTMGWYRQAPGKEREFVDAITWSDTSTSYADSVKGRFTISRDNAKNTVYLQMNSLKPEDTAVYYCNAATRSSVTFGWYIEYDYWGQGTQVTVSS,low polyreactivity
11,QVQLVESGGGLVQAGGSLRLSCAASGFTFGVYAMGWYRQAPGKERELVAAISRSSGRTYYADSVKGRFTISRDNAKNTVYLQMNSLKPEDTAVYYCAARGYTLSYVDMYYWGQGTQVTVSS,high polyreactivity
12,QVQLVESGGGLVQAGGSLRLSCAASGLTLRYYVMGWYRQAPGKERELVASITRSGGSTSYADSVKGRFTISRDNAKNTVYLQMNSLQPEDTAVYYCNRRTYVGTRASFLYYYWGQGTQVTVSA,high polyreactivity
13,QVQLVESGGGLVQAGGSLRLTCAASGLIFYAYAMGWYRPAPWKERELVAAITSGGDTNYADSVKGRFTISRDNAKNTVYLQMNSLKPEDTAVYYCNADPPVFQSVYWRWYHNYDYWGQGTQVTLSS,low polyreactivity
14,QVQLVESGGGLVQAGGSLRLSCAASGLTFAKYAMGWYRQAPGKERELVAAIRSGDDTTYADSVKGRFTISRDNAMNTVYLQMISLKPEDTAVYYCAARPIHYPPYYYWGQGTQVTVSS,high polyreactivity
15,QVQLVESRGGLVQAGGSLRLSCAASGSIFLVYAMGWYRQAPGKERELVAAIDSSGGSTYYADSVKGRFTISRDNAKNTVYLQMNSLKREDTAVYYCAVYIRYPWSGRYDYWGQGTQVTVSS,high polyreactivity
16,QVQLVESGGGLVQAGGSLRLSCAASGTFVTYMGWSRQAPGKERELVAAIRNGGSTNNADTVKGRFTISRDNAKNTVYLQMNSLIPEDTAVYYCAPRFTYSRGYRGGSRTKYDYWGQGTQVTVSS,low polyreactivity
17,QVQLVESGGGLVQAGGSLRLSCAASGIIFGYYSMGWYRQAPGKERDLVAAITWSGGSTYYADSVKGRFTISRDYAKNTVYLQMNSLKPEDTAVYYCNALGWYGDYDYWGQGTQVTVSS,low polyreactivity
18,QVQLVESGGGLVQAGGSLRLSCAASGITFNLNDMGWYRQAPGKERELVAAITSGGNTSYADSVKGRFTISRDNAKNTVDLQMNSLKPEDTAVYYCATEDFRTDTGMYYWGQGTQVTVSS,low polyreactivity
19,QVQLVESGGGLVQAGGSLRLSCAASGSTLALYTMGWYRQAPGKERELVAAISKNGGRTYYADSVKGRFTISRDNAKNTVYLKMNSLKPEDTAVYYCAAASGSYRGYDYWGQGTQVTVSS,high polyreactivity
20,QVQLVESGGGLLQAGGSLSLSCAASGGTFRYYTMGWYRQAPGKERELVASISGGGRTYYADSVKGRFTISRDNAKNTVYLQMNSLKPEDTAVYYCATYTRTFGYWGYGYWGQGTQVTVSS,high polyreactivity
21,QVQLVESGGVLVQAGGSLRLSCAASGTFYPNARGWYRQAPGKDRELVAALSEDGGGTYYADSVKGRFTISRDNAKNTVYLQMNSLKPEDTAVYYCAAEYYDYWYTFDYWGQGTQVTVSS,high polyreactivity
